Results published in patent publication US20240067748A1 (NONA BIOSCIENCES SUZHOU, published 2024).

Target: T1, mouse Trop2-his protein (Sino Biological, #50922-M08H) (mouse, UniProt Q8BGV3 25-270)
T1 construct: bought protein; also called mouse Trop2 protein; not shown: his tag
T1 sequence (looked up): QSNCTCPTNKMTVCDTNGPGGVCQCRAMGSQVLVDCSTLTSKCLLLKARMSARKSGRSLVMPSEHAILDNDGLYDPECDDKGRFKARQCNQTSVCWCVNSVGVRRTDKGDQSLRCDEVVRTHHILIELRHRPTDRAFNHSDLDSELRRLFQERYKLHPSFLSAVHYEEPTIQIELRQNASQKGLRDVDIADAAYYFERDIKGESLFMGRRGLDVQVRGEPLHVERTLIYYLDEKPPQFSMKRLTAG
Experiment: ELISA, plate coated with mouse Trop2-his protein
Method: An ELISA plate was coated with 100 μL of 1 μg/mL mouse Trop2-his protein (Sino Biological, #50922-M08H) in PBS at 4° C. overnight. The plate was blocked with 200 μL of PBST (PBS+0.05% tween 20)+2% BSA at 37° C. for 1 h. The plate was washed 4 times with PBST. 100 μL of Trop2 antibody diluted in a gradient (5-fold dilution, starting concentration: 33.33 nM) was added to the ELISA plate and the plate was incubated at 37° C. for 1 h. The plate was washed 4 times with PBST. 100 μL of anti-human IgG (H+L)-HRP (Sigma, #A8667) diluted in 1:4000 was added and the plate was incubated at 37° C. for 1 h. The plate was washed 4 times with PBST. 100 μL of TMB substrate (Invitrogen, #88-7025-88) was added and the plate was incubated at room temperature for 5 min, and then 50 μL of stop buffer (BBI life sciences, #E661006-0200) was added to stop the reaction. The OD450 nm reading was recorded using a microplate reader (Perkin Elmer, EnSpire).

B1: comparative example 2 antibody Tab (hRS7) (antibody, human IgG1, kappa, V domains shown)
VH: QVQLQQSGSELKKPGASVKVSCKASGYTFTNYGMNWVKQAPGQGLKWMGWINTYTGEPTYTDDFKGRFAFSLDTSVSTAYLQISSLKADDTAVYFCARGGFGSSYWYFDVWGQGSLVTVSS
VL: DIQLTQSPSSLSASVGDRVSITCKASQDVSIAVAWYQQKPGKAPKLLIYSASYRYTGVPDRFSGSGSGTDFTLTISSLQPEDFAVYYCQQHYITPLTFGAGTKVEIKR
notes: prepared on the basis of sacituzumab govitecan (ChemPartner, #T07-001); naked antibody
  binding result: no binding (tested: 33.33 nM (starting concentration))
